Measurements taken from patent US20100043097A1 (CARNEGIE INSTITUTION OF WASHINGTON, published 2010).

B1: BRI1-GFP (receptor, Arabidopsis thaliana, UniProt O22476 24-1196, looked up)
chain: FQASPSQSLYREIHQLISFKDVLPDKNLLPDWSSNKNPCTFDGVTCRDDKVTSIDLSSKPLNVGFSAVSSSLLSLTGLESLFLSNSHINGSVSGFKCSASLTSLDLSRNSLSGPVTTLTSLGSCSGLKFLNVSSNTLDFPGKVSGGLKLNSLEVLDLSANSISGANVVGWVLSDGCGELKHLAISGNKISGDVDVSRCVNLEFLDVSSNNFSTGIPFLGDCSALQHLDISGNKLSGDFSRAISTCTELKLLNISSNQFVGPIPPLPLKSLQYLSLAENKFTGEIPDFLSGACDTLTGLDLSGNHFYGAVPPFFGSCSLLESLALSSNNFSGELPMDTLLKMRGLKVLDLSFNEFSGELPESLTNLSASLLTLDLSSNNFSGPILPNLCQNPKNTLQELYLQNNGFTGKIPPTLSNCSELVSLHLSFNYLSGTIPSSLGSLSKLRDLKLWLNMLEGEIPQELMYVKTLETLILDFNDLTGEIPSGLSNCTNLNWISLSNNRLTGEIPKWIGRLENLAILKLSNNSFSGNIPAELGDCRSLIWLDLNTNLFNGTIPAAMFKQSGKIAANFIAGKRYVYIKNDGMKKECHGAGNLLEFQGIRSEQLNRLSTRNPCNITSRVYGGHTSPTFDNNGSMMFLDMSYNMLSGYIPKEIGSMPYLFILNLGHNDISGSIPDEVGDLRGLNILDLSSNKLDGRIPQAMSALTMLTEIDLSNNNLSGPIPEMGQFETFPPAKFLNNPGLCGYPLPRCDPSNADGYAHHQRSHGRRPASLAGSVAMGLLFSFVCIFGLILVGREMRKRRRKKEAELEMYAEGHGNSGDRTANNTNWKLTGVKEALSINLAAFEKPLRKLTFADLLQATNGFHNDSLIGSGGFGDVYKAILKDGSAVAIKKLIHVSGQGDREFMAEMETIGKIKHRNLVPLLGYCKVGDERLLVYEFMKYGSLEDVLHDPKKAGVKLNWSTRRKIAIGSARGLAFLHHNCSPHIIHRDMKSSNVLLDENLEARVSDFGMARLMSAMDTHLSVSTLAGTPGYVPPEYYQSFRCSTKGDVYSYGVVLLELLTGKRPTDSPDFGDNNLVGWVKQHAKLRISDVFDPELMKEDPALEIELLQHLKVAVACLDDRAWRRPTMVQVMAMFKEIQAGSGIDSQSTIRSIEDGGFSTIEMVDMSIKEVPEGKL
notes: Expressed in transgenic Arabidopsis; solubilised microsomal proteins used for co-immunoprecipitation; also called BRI1-GFP protein expressed from the BRI1 promoter; not shown: GFP tag

What was measured:
Protein A bead alone = target: T1, Protein A bead alone (UniProt P38507 37-477); assay: immunoprecipitation control from microsomal proteins, anti-GFP immunoblot
T1 construct: IP control without antibody; also called Protein A Sepharose beads
Protocol: Microsomal proteins (Input, lane 1) from det2 mutant plants expressing BRI1-GFP under the control of BRI1 promoter were immunoprecipitated (IP) using polyclonal anti-BRK1 antibodies affinity-purified using an BRK1 antigen column (lane 3). Protein A bead alone was used as IP control (lane 2). Immunoblots were probed using anti-GFP antibodies. BRI1-GFP can be pulled down by anti-BRI1 antibody but not by protein A bead.
All procedures were performed at 4° C. Rosette leaves of 3-week-old Arabidopsis plants were homogenized with mortar and pestle in the grinding buffer (20 mM HEPES, pH 7.5, 40 mM KCl, 250 mM sucrose, 5 mM MgCl₂ and protein inhibitors) at a ratio of 3 mL buffer per gram of tissue. Homogenate was filtered through 2 layers of Miracloth (CalBiochem, La Jolla, Calif.), and centrifuged at 10,000 g for 10 minutes. The supernatant was further centrifuged at 100,000 g for 60 min to pellet the microsomal fraction. Microsomes were re-suspended in 0.5 mL grinding buffer and sonicated for 10 sec. Triton X-100 was added to a final concentration of 1%. After mixing, the extracts were centrifuged at 20,000 g for 10 min. Supernatant was diluted 5 times with grinding buffer to reduce Triton X-100 to 0.2%. […] Samples were analyzed by SDS-PAGE and immunoblotting.

BRI1-GFP = target: B1; assay: co-immunoprecipitation with anti-GFP antibodies after 100 nM brassinolide for 30 min, anti-myc immunoblot (FIG. 2D)

| Binder | binding result (Protein A bead alone) | amount of co-immunoprecipitated BRK1-myc after BR treatment relative to the untreated sample (BRI1-GFP) |
| --- | --- | --- |
| B1 | no binding | – |
| BRK1-myc (enzyme, Full-length BRK1 with C-terminal 4x Myc tag, expressed from the 35S promoter in Arabidopsis; also called BRK1-myc protein; not shown: 4x Myc tag of the pGWB17 vector) GCCQSLFSGDNPLGKDGVQPQPLSQNNHGGATTADNGGSGGASGVGGGGGGGGIPSFSEFSFADLKAATNNFSSDNIVSESGEKAPNLVYKGRLQNRRWIAVKKFTKMAWPEPKQFAEEAWGVGKLRHNRLANLIGYCCDGDERLLVAEFMPNDTLAKHLFHWENQTIEWAMRLRVGYYIAEALDYCSTEGRPLYHDLNAYRVLFDEDGDPRLSCFGLMKNSRDGKSYSTNLAYTPPEYLRNGRVTPESVTYSFGTVLLDLLSGKHIPPSHALDMIRGKNIILLMDSHLEGKFSTEEATVVVELASQCLQYEPRERPNTKDLVATLAPLQTKSDVPSYVMLGIKKQEEAPSTPQRPLSPLGEACSRMDLTAIHQILVMTHYRDDEGTNELSFQEWTQQMKDMLDARKRGDQSFREKDFKTAIDCYSQFIDVGTMVSPTVFGRRSLCYLLCDQPDAALRDAMQAQCVYPDWPTAFYMQSVALAKLNMNTDAADMLNEAAQLEEKRQRGGRGS | – | 46 % of the untreated sample |
